Molecular target: the molecule itself
Experiment: nonreducing SDS-PAGE + mass spectrometry of the band

B1: native Bet v 1d in aqueous birch pollen extract (BPE) (natural protein, UniProt P43177 1-160, looked up)
chain: MGVFNYEIETTSVIPAARLFKAFILDGDNLVPKVAPQAISSVENIEGNGGPGTIKKINFPEGFPFKYVKDRVDEVDHTNFKYNYSVIEGGPVGDTLEKISNEIKIVATPDGGCVLKISNKYHTKGNHEVKAEQVKASKEMGETLLRAVESYLLAHSDAYN
Q: For B1, which “stoichiometry N” value is on record?
A: 2

From PMC2968749 (Journal of immunology (Baltimore, Md. : 1950), 2009)
